Laboratory results from doi:10.1101/2021.05.09.442808 (bioRxiv, 2021).

Tests used:
[1] = molecular target: MERS-CoV S 2P prefusion-stabilized ectodomain trimer (MERS-CoV, strain of ectodomain not …, stabilised); assay: SPR
[2] = molecular target: SARS-CoV S 2P prefusion-stabilized ectodomain trimer (SARS-CoV, Urbani (AAP13441, named for …, UniProt P59594, stabilised)); assay: SPR

B1: S2P6 Fab fragment (Fab, V domains shown)
VH: EVQLVQSGAEVKKPGASVKVSCKASGYTFTSQYMHWVRQAPGQGLEWIGIINPSGVHTSYAQKFQGRVTLTRDTSTSTLYMELSSLRSEDTAVYYCARGSPKGAFDYWGQGTLVTVSS
VL: not shown
B1 showed a Kd [1] of 12 nM and a Kd [2] of 7 nM.
